This passage reports Km (activation of Factor X by the Xase complex), Vmax (activation of Factor X by the Xase complex) and Vmax (FXa generation, varying FIXa) results from patent publication US20160199455.

In this data set the test system is T1, rBDD FVIII (recombinant B-domain deleted FVIII, REFACTO).
T1 sequence: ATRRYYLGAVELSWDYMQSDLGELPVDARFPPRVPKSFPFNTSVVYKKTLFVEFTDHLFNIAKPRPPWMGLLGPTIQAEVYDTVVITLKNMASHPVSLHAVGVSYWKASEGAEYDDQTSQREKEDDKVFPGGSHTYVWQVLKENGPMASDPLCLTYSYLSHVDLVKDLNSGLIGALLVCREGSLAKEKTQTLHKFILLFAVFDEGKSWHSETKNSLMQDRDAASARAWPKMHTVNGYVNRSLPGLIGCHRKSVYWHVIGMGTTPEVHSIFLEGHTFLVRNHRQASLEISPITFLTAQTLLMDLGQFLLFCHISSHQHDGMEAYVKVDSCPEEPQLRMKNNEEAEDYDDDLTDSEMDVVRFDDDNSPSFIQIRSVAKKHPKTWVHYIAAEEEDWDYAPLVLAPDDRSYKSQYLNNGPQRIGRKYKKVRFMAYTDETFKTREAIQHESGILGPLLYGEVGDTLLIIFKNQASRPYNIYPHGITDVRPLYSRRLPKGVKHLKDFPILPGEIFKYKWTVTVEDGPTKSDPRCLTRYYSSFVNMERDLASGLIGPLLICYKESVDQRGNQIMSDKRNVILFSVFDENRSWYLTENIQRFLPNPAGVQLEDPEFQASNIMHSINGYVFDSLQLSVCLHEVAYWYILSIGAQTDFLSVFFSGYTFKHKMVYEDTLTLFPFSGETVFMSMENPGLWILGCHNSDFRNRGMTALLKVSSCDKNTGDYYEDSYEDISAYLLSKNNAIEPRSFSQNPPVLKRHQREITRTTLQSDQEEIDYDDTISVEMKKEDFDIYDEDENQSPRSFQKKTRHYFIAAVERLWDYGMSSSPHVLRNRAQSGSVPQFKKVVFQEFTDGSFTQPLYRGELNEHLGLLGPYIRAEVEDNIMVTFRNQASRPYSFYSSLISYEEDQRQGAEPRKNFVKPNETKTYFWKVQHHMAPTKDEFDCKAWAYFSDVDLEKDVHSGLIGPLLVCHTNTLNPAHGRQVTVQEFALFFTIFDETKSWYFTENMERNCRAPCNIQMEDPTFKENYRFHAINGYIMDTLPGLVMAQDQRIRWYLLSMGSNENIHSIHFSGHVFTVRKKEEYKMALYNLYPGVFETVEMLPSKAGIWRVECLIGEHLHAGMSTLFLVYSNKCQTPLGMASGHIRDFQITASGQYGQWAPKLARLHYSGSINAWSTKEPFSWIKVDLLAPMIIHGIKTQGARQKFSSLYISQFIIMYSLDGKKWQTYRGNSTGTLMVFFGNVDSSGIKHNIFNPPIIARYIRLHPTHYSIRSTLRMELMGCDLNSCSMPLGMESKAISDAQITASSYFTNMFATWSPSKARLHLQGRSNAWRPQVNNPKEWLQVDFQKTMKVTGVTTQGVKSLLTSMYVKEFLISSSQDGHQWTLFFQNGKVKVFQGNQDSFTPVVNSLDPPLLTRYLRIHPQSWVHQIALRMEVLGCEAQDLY

As for Factor X (FX), the Km (activation of Factor X by the Xase complex) came to 0.051 µM and the Vmax (activation of Factor X by the Xase complex) came to 73.5 nM/min. For activated Factor IX (FIXa), the Vmax (FXa generation, varying FIXa) came out at 4 nM/min.
